Data published in IntAct's records for PubMed 28506294.

B1: SOSS complex subunit B1 (Homo sapiens), Q9BQ15 (parent)
chain: MTTETFVKDIKPGLKNLNLIFIVLETGRVTKTKDGHEVRTCKVADKTGSINISVWDDVGNLIQPGDIIRLTKGYASVFKGCLTLYTGRGGDLQKIGEFCMVYSEVPNFSEPNPEYSTQQAPNKAVQNDSNPSASQPTTGPSAASPASENQNGNGLSAPPGPGGGPHPPHTPSHPPSTRITRSQPNHTPAGPPGPSSNPVSNGKETRRSSKR

Variants of: B1
Settings: with int3_human INTS3, Q68E01
Chain of int3_human INTS3, Q68E01 (Q68E01 whole entry): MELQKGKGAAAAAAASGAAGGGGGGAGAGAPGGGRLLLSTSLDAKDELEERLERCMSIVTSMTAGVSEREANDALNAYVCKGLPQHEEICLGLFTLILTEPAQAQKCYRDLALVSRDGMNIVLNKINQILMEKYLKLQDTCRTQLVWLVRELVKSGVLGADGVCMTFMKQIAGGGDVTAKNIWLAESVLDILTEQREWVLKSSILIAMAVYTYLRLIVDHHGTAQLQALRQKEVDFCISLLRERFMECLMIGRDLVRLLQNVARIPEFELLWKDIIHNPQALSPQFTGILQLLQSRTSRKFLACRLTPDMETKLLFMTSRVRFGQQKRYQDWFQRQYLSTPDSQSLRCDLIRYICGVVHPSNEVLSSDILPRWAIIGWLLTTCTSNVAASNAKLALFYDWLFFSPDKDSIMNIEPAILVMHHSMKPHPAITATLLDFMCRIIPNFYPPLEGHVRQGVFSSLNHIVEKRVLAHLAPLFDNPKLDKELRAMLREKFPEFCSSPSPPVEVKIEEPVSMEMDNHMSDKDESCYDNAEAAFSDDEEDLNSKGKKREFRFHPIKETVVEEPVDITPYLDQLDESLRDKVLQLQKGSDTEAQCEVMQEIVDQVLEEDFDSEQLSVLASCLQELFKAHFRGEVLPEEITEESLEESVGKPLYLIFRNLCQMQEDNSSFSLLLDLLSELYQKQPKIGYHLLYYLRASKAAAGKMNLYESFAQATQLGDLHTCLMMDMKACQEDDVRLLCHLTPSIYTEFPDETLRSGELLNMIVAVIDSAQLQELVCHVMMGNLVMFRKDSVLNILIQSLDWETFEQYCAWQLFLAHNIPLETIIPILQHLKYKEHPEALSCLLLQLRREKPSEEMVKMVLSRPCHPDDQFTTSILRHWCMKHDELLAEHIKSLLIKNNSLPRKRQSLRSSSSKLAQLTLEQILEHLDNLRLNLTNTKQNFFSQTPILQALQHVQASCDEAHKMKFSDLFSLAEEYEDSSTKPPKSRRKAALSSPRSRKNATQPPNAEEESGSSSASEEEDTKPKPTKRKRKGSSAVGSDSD

| Variant | effect of a mutation on the interaction |
| --- | --- |
| F98A | disrupting interaction strength |
